Results as given in patent publication US7718413B2, “Glycosylation variants of BACE” (Elan Pharmaceuticals, Inc., priority 2003, dated 2010).
Where “and” joins values, the source holds several entries; their conditions need not be identical. Identical values can stand only once.

System: MBP-C125Swe
Assay: β-Secretase assay: cleavage of substrate MBP-C125Swe, ELISA read-out
Type: biochemical
Conditions: 0.02 μL BACE, MBP-C125Swe 220 nM, one hour, 37° C., pH 4.5; for Cleavage Product: group mean of 6 samples; for Activity / Substrate Conversion: group mean
From the text: Peptide substrate MBP-C125Swe was used for all assays. MBP-C125Swe is a bacterial fusion protein containing maltose binding protein MBP fused to the C-terminal 125 amino acids of the Swedish variant (Lys670Asn, Met671Leu double mutation) of APP. Sinha et al (1999). The C-terminal 125 amino acids were cloned into the expression vector pMALc (New England Biolabs) and transfected into E. coli. The fusion proteins were induced and solubilized by sonication of the pelleted bacteria. The proteins were purified by affinity chromatography on amylose-agarose, made up to 3 M guanidine, and stored in 10 mM Tris, pH 7.5, 0.2% Triton X-100, and 0.15 M guanidine.
All digests were done with 0.02 μL BACE (Δ3, 0.69 μM; Δ2,3 0.77 μM; wild type 0.66 μM) at 37° C. in a total volume of 50 μL 0.06% Triton X-100 and 20 mM sodium acetate, pH 4.5. Samples were incubated with MBP-C125Swe substrate (10 μg/mL, 220 nM) for one hour. Digests were assayed in an ELISA assay, capturing with antibody to MBP and detecting with biotinylated Sw192, a neo-epitope specific antibody recognizing the free C-terminal leucine of the N-terminal product of β-secretase cleavage of the APPSwe sequence. See Seubert. P. et al. Nature 361:260-263 (1993), and Knops, J. et al. J. Biol. Chem. 270:2419-2422 (1995). Product was allowed to bind for 24 hours at 4° C., then quantitated with streptavidin-horse radish peroxidase. Biotinylated peptide corresponding to the N-terminal cleavage product was synthesized and used as a standard.
These values were converted from the above data by the following equation: nM product/hr (ng enzyme)×45 ng enzyme/pm enz× 1/220 nM substrate×⅓,660 sec/hr×50,000 nL/reaction.

Molecule	Cleavage Product	Activity	Substrate Conversion
delta 2, 3: BACE variant S174I and N223A (SEQ ID NO:3), made on the 452Flag soluble truncated BACE template (protein, Flag tag; Human BACE with serine to isoleucine (S174I) and asparagine to alanine (N223A) mutations.) ETDEEPEEPGRRGSFVEMVDNLRGKSGQGYYVEMTVGSPPQTLNILVDTGSSNFAVGAAPHPFLHRYYQRQLSSTYRDLRKGVYVPYTQGKWEGELGTDLVSIPHGPNVTVRANIAAITESDKFFINGINWEGILGLAYAEIARPDDSLEPFFDSLVKQTHVPNLFSLQLCGAGFPLAQSEVLASVGGSMIIGGIDHSLYTGSLWYTPIRREWYYEVIIVRVEINGQDLKMDCKEYNYDKSIVDSGTTNLRLPKKVFEAAVKSIKAASSTEKFPDGFWLGEQLVCWQAGTTPWNIFPVISLYLMGEVTNQSFRITILPQQYLRPVEDVATSQDDCYKFAISQSSTGTVMGAVIMEGFYVVFDRARKRIGFAVSACHVHDEFRTAAVEGPFVTLDMEDCGYNIPQTD	109 pM and 108 pM	15,753 pM/h/ng enz and 15,662 pM/h/ng enz	5.19% and 5.16%
delta 3: BACE variant N223A (SEQ ID NO:2), made on the 452Flag soluble truncated BACE template (protein, Flag tag; Human BACE with asparagine to alanine (N223A) mutation.) ETDEEPEEPGRRGSFVEMVDNLRGKSGQGYYVEMTVGSPPQTLNILVDTGSSNFAVGAAPHPFLHRYYQRQLSSTYRDLRKGVYVPYTQGKWEGELGTDLVSIPHGPNVTVRANIAAITESDKFFINGSNWEGILGLAYAEIARPDDSLEPFFDSLVKQTHVPNLFSLQLCGAGFPLAQSEVLASVGGSMIIGGIDHSLYTGSLWYTPIRREWYYEVIIVRVEINGQDLKMDCKEYNYDKSIVDSGTTNLRLPKKVFEAAVKSIKAASSTEKFPDGFWLGEQLVCWQAGTTPWNIFPVISLYLMGEVTNQSFRITILPQQYLRPVEDVATSQDDCYKFAISQSSTGTVMGAVIMEGFYVVFDRARKRIGFAVSACHVHDEFRTAAVEGPFVTLDMEDCGYNIPQTD	119 pM and 126 pM	19,071 pM/h/ng enz and 20,173 pM/h/ng enz	5.68% and 6.01%
wild type: fully glycosylated soluble BACE truncated after residue 451 with Flag sequence (protein, left off: small tags and cut ends) TQHGIRLPLRSGLGGAPLGLRLPRETDEEPEEPGRRGSFVEMVDNLRGKSGQGYYVEMTVGSPPQTLNILVDTGSSNFAVGAAPHPFLHRYYQRQLSSTYRDLRKGVYVPYTQGKWEGELGTDLVSIPHGPNVTVRANIAAITESDKFFINGSNWEGILGLAYAEIARPDDSLEPFFDSLVKQTHVPNLFSLQLCGAGFPLNQSEVLASVGGSMIIGGIDHSLYTGSLWYTPIRREWYYEVIIVRVEINGQDLKMDCKEYNYDKSIVDSGTTNLRLPKKVFEAAVKSIKAASSTEKFPDGFWLGEQLVCWQAGTTPWNIFPVISLYLMGEVTNQSFRITILPQQYLRPVEDVATSQDDCYKFAISQSSTGTVMGAVIMEGFYVVFDRARKRIGFAVSACHVHDEFRTAAVEGPFVTLDMEDCGYNIPQTD	85 pM and 90 pM	14,308 pM/h/ng enz and 15,177 pM/h/ng enz	4.05% and 4.30%
